Patent publication US20220378931A1 (Eli Lilly, published 2022)
Read-outs that look alike come from different tables or passages of the source.

Tests used:
[1] = molecular target: T1, rabbit serum albumin (rabbit, UniProt P49065 25-608); experiment: SPR (Biacore 8K), albumin immobilised, 25 C
T1 construct: bought protein, amine-coupled to a CM5 chip; also called Rabbit SA
Protocol: (§1) Immobilization of serum albumin to a Series S Sensor Chip CM5 surface is performed according to the manufacturer's instructions (Amine Coupling Kit BR-1000-50). Briefly, carboxyl groups on the sensor chip surfaces (flow cell 1 and 2) are activated by injecting 70 μL of a mixture containing 75 mg/ml EDC and 11.5 mg/ml NHS at 10 μL/min. Human, cynomolgus monkey, mouse, rat, pig, dog, cow and rabbit serum albumin are diluted in 10 mM NaOAc pH 4.0 (BR-1003-49) at 1, 1, 3, 1, 1, 1, 1 and 1 μg/mL and then injected over the activated chip surfaces (flow cell 2, […]) at 10 μL/min for 90 sec (human, mouse, rat, pig and cow serum albumin are obtained from Sigma Aldrich (St. Louis, Mo.); cynomolgus monkey serum albumin is obtained from Holzel Diagnostika (Cologne, Germany); dog serum albumin is obtained from Molecular Innovations (Novi, Mich.); and rabbit serum albumin is obtained from Fitzgerald Industries International (Acton, Mass.)). […] Excess reactive groups on the surfaces (flow cell 1 and 2) are deactivated by injecting 70 μL of 1 M ETA HCl—NaOH pH 8.5 at 10 μL/min.
(§2) 150 μL of sample is individually injecting sequentially across the immobilized serum albumins surface and then dissociates for 600 sec at 50 μL/min flow rate at 25° C. The surface is regenerated by injecting 10 mM glycine-HCl pH 1.5 (BR-1003-54) at 50 μL/min for 100 sec. The resulting sensorgrams are analyzed using Biacore 8K Insight Evaluation Software (version 2.0.15.12933) 1:1 binding kinetics or steady-state affinity model fitting to calculate the binding kinetic parameter association rate (ka), dissociation rate (kd), and equilibrium dissociation constant (KD)

[2] = molecular target: T2, human insulin receptor isoform A with C-terminal C9 tag (human, UniProt P06213 28-1382); experiment: 125I-insulin competition SPA, hIR-A membranes, 0.1% BSA
T2 construct: membranes of stably transfected HEK293 cells; also called hIR-A; human IR-A
Protocol: (§3) The assays are performed with a SPA method using polyvinyltoluene (PVT) wheat germ agglutinin-coupled SPA beads (Perkin Elmer). Assay buffer contains 50 mM Tris-HCl, pH 7.5, 150 mM NaCl and either A) 0.1% w/v fatty-acid free BSA; B) 0.1% w/v fatty-acid free human serum albumin (HSA); C) 0.1% w/v rat serum albumin (RSA); or D) 0.001% Nonidet P-40 Substitute (NP-40, Roche Diagnostics). Ten-point concentration response curves using three-fold serial dilutions of test samples or controls are prepared in Assay Buffer using a Freedom/Evo robot (Tecan).
(§4) Percent specific inhibition (y-axis) is plotted versus the log concentration of compound (x-axis). […] Reported Ki values are shown as the geometric mean with the standard error (Delta Method Standard Error) and the number of independent replicate determinations used to calculate the geometric mean indicated by n.

[3] = molecular target: T2, human insulin receptor isoform A with …; experiment: 125I-insulin competition SPA, hIR-A membranes, 0.1% HSA
Protocol: as §3, §4

[4] = molecular target: T3, human insulin receptor isoform B with C-terminal C9 tag (human, UniProt P06213 28-1382); experiment: 125I-insulin competition SPA, hIR-B membranes, 0.1% BSA
T3 construct: membranes of stably transfected HEK293 cells; also called hIR-B; human IR-B
Protocol: as §3, §4

[5] = molecular target: T3, human insulin receptor isoform B with …; experiment: 125I-insulin competition SPA, hIR-B membranes, 0.1% HSA
Protocol: as §3, §4

[6] = molecular target: T4, human serum albumin (human, UniProt P02768 25-609); experiment: SPR (Biacore 8K), albumin immobilised, 25 C, 1:1 kinetics
T4 construct: bought protein, amine-coupled to a CM5 chip; also called Human SA; HSA
Protocol: as §1, §2

[7] = molecular target: T5, cynomolgus monkey serum albumin (cynomolgus monkey, UniProt A2V9Z4 25-608); experiment: as above
T5 construct: bought protein, amine-coupled to a CM5 chip; also called Cyno SA
Protocol: as §1, §2

[8] = molecular target: T6, mouse serum albumin (mouse, UniProt P07724 25-608); experiment: as above
T6 construct: bought protein, amine-coupled to a CM5 chip; also called Mouse SA
Protocol: as §1, §2

[9] = molecular target: T7, rat serum albumin (rat, UniProt P02770 25-608); experiment: as above
T7 construct: bought protein, amine-coupled to a CM5 chip; also called Rat SA; RSA
Protocol: as §1, §2

[10] = molecular target: T8, pig serum albumin (pig, UniProt P08835 25-607); experiment: as above
T8 construct: bought protein, amine-coupled to a CM5 chip; also called Pig SA
Protocol: as §1, §2

[11] = molecular target: T9, dog serum albumin (dog, UniProt P49822 25-608); experiment: as above
T9 construct: bought protein, amine-coupled to a CM5 chip; also called Dog SA
Protocol: as §1, §2

[12] = molecular target: T2, human insulin receptor isoform A with …; experiment: 125I-insulin competition SPA, hIR-A membranes, 0.001% NP-40
Protocol: as §3, §4

[13] = molecular target: T3, human insulin receptor isoform B with …; experiment: 125I-insulin competition SPA, hIR-B membranes, 0.001% NP-40
Protocol: as §3, §4

[14] = molecular target: T10, cow serum albumin (cow, UniProt P02769 25-607); experiment: SPR (Biacore 8K), albumin immobilised, 25 C, steady-state affinity
T10 construct: bought protein, amine-coupled to a CM5 chip; also called Cow SA; Bovine SA
Protocol: as §1, §2

[15] = molecular target: T10, cow serum albumin; experiment: as above; remark: listed apart in the source

binding result [1] | Ki [2] | Ki [3] | Ki [4] | Ki [5] | Kd [6] | koff [6] | kon [6] | Kd [7] | koff [7] | kon [7] | Kd [8] | koff [8] | kon [8] | Kd [9] | koff [9] | kon [9] | Kd [10] | koff [10] | kon [10] | Binder | also measured
no binding (tested: up to 1000 nM) | 0.127 µM | 0.0172 µM | 0.1 µM | 0.0245 µM | 0.00073 µM | 0.00011 s⁻¹ | 160000 M⁻¹ s⁻¹ | 0.0043 µM | 0.00069 s⁻¹ | 160000 M⁻¹ s⁻¹ | 0.039 µM | 0.0071 s⁻¹ | 190000 M⁻¹ s⁻¹ | 0.03 µM | 0.0051 s⁻¹ | 170000 M⁻¹ s⁻¹ | 0.08 µM | 0.0092 s⁻¹ | 110000 M⁻¹ s⁻¹ | INS Analog 30 (other, single-chain insulin B-L2-A-L1-VHH fusion; also called Ex. 30) FVSQHLCGSHLVEALRLVCGERGFHYTPKTGGGGGGGIVEQCCHSICSLYQLENYCGPGPQPGPQPGPQPGPQPGPQPGPQPGPQPGPQEVQLLESGGGLVQPGGSLRLSCAASGRYIDETAVAWFRQAPGKEREFVAGIGGGVDITYYADSVKGRFTISRDNSKNTLYLQMNSLRPEDTAVYYCAARPGRPLITSKVADLYPYWGQGTLVTVSSPP | Kd [11]: 0.013 µM; koff [11]: 0.0022 s⁻¹; kon [11]: 170000 M⁻¹ s⁻¹; Ki [12]: 0.0493 µM; Ki [13]: 0.06 µM; Kd [14]: 0.37 µM
no binding (tested: up to 1000 nM) | 0.389 µM | 0.0406 µM | 0.405 µM | 0.105 µM | 0.00049 µM | 9.4e-05 s⁻¹ | 190000 M⁻¹ s⁻¹ | 0.0039 µM | 0.00069 s⁻¹ | 180000 M⁻¹ s⁻¹ | 0.035 µM | 0.0069 s⁻¹ | 200000 M⁻¹ s⁻¹ | 0.032 µM | 0.0056 s⁻¹ | 170000 M⁻¹ s⁻¹ | 0.087 µM | 0.0098 s⁻¹ | 110000 M⁻¹ s⁻¹ | INS Analog 26 (other, single-chain insulin B-L2-A-L1-VHH fusion; also called Ex. 26) FVSQHLCGSHLVEALRLVCGERGFFYTPKTGGGGGGGIVEQCCTSICSLYQLENYCGPGPQPGPQPGPQPGPQPGPQPGPQPGPQPGPQEVQLLESGGGLVQPGGSLRLSCAASGRYIDETAVAWFRQAPGKEREFVAGIGGGVDITYYADSVKGRFTISRDNSKNTLYLQMNSLRPEDTAVYYCAARPGRPLITSKVADLYPYWGQGTLVTVSSPP | Kd [11]: 0.013 µM; koff [11]: 0.0023 s⁻¹; kon [11]: 170000 M⁻¹ s⁻¹; Ki [12]: 0.105 µM; Ki [13]: 0.214 µM; Kd [14]: 0.4 µM
no binding (tested: up to 1000 nM) | 0.63 µM | 0.125 µM | 0.79 µM | 0.279 µM | 0.00032 µM | 8.4e-05 s⁻¹ | 260000 M⁻¹ s⁻¹ | 0.0035 µM | 0.00079 s⁻¹ | 230000 M⁻¹ s⁻¹ | 0.042 µM | 0.0092 s⁻¹ | 220000 M⁻¹ s⁻¹ | 0.034 µM | 0.0066 s⁻¹ | 200000 M⁻¹ s⁻¹ | 0.09 µM | 0.011 s⁻¹ | 130000 M⁻¹ s⁻¹ | INS Analog 25 (other, single-chain insulin B-L2-A-L1-VHH fusion; also called Ex. 25) FVSQHLCGSHLVEALRLVCGERGFFYTPKTGGGGGGGIVEQCCTSICSLYQLENYCGGGGGQGGGGQGGGGQGGGGQGGGGQEVQLLESGGGLVQPGGSLRLSCAASGRYIDETAVAWFRQAPGKEREFVAGIGGGVDITYYADSVKGRFTISRDNSKNTLYLQMNSLRPEDTAVYYCAARPGRPLITSKVADLYPYWGQGTLVTVSSPP | Kd [11]: 0.016 µM; koff [11]: 0.0033 s⁻¹; kon [11]: 200000 M⁻¹ s⁻¹; Ki [12]: 0.174 µM; Ki [13]: 0.641 µM; Kd [15]: 0.39 µM
